Reference: the DeepSol protein solubility set

Experiment: soluble on expression in E. coli; label from the status in PepcDB or PDB records

| Sequence | soluble on expression in E. coli |
| --- | --- |
| MTKEQIQIIKDCVPILQKNGEDLTNEFYKIMFNDYPEVKPMFNMEKQISGEQPKALAMAILMAAKNIENLENMRSFVDKVAITHVNLGVKEEHYPIVGACLLKAIKNLLNPDEATLKAWEVAYGKIAKFYIDIEKKLYDK | soluble |
| MTKIACVIVTYNRKQLLEEALNSVLIQTESPEYVFVIDNASTDGTEKYINDKFNFDNRQWHYVRCSQNLGGSAGFAQGMRLALQTDCSWISISDDDAIFEPGYFAALRKGIKQYPEQSVFSGSVLLPDGKHDMMHREVITNSATLTVRCVTDETYKHDFSYDIFSFVGILLSRQVIEAIGLPEQDYFIRFDDFEYAVRALKFGRFMNLSAAKVLHKTTYTRSALEHHHHHH | not soluble |
| MTKKLIKIWRKEMLALMNEDADWYRNEDTERFKRIQELARKIETANTRQFSSHISKERFEAYQKMGLQFKEIAEEFHITTTALQQWRKDNGYPIYNKNNRK | not soluble |
| MTKKQLHLVIVTGMSGAGKTVAIQSFEDLGYFTIDNMPPALLPKFLQLVEIKEDNPKLALVVDMRSRSFFSEIQAVLDELENQDGLDFKILFLDAADKELVARYKETRRSHPLAADGRILDGIKLERELLAPLKNMSQNVVDTTELTPRELRKTLAEQFSDQEQAQSFRIEVMSFGFKYGIPIDADLVFDVRFLPNPYYLPELRNQTGVDEPVYDYVMNHPESEDFYQHLLALIEPILPSYQKEGKSVLTIAMGCTGGQHRSVAFAKRLAQDLSKNWSVNEGHRDKDRRKETVNRS | not soluble |
| MTKNKMEAKIDELINNDPVWSSQNESLISKPYNHILLKPGKNFRLNLIVQINRVMNLPKDQLAIVSQIVELLHNSSLLIDDIEDNAPLRRGQTTSHLIFGVPSTINTANYMYFRAMQLVSQLTTKEPLYHNLITIFNEELINLHRGQGLDIYWRDFLPEIIPTQEMYLNMVMNKTGGLFRLTLRLMEALSPSSHHGHSLVPFINLLGIIYQIRDDYLNLKDFQMSSEKGFAEDITEGKLSFPIVHALNFTKTKGQTEQHNEILRILLLRTSDKDIKLKLIQILEFDTNSLAYTKNFINQLVNMIKNDNENKYLPDLASHSDTATNLHDELLYIIDHLSEL | soluble |
| MTKPAPTPLYNEFTFFLKKYFSYKVQKISLNAGFTCPNRDGTKGLGGCTYCNNQTFNPEYCKTEKSVTRQLEEGKQFFAHKYPDMKYLAYFQAYTNTYAELEGLKGKYEEALSVDGVVGLVIGTRPDCMPDPLLRYLEELNKHTFLLVEYGIETTRDVTLKRINRGHTYADTVETVNRTAACGILTGGHVILGLPGETHDEIIAQAAELSRLPLTTLKMHQLQLIRGTKMAREFECRPEDFHLFSVDEYIDLVIDYVEHLRPDLILERFVSQSPKELLIAPDWGLKNYEFTARVQKRMKERGAYQGKAYLV | not soluble |
| MTKQYLTHRCLIAPPEMADDFFANTVIYLARHDDEGAQGLIINRPSGIQVRELLNDLDIEADHVQPHEVLQGGPLRPEAGFVLHTGQPVWHSSIAVGENLCITTSKDILDAIAHNEGVGRYQIALGYASWTKNQLEGEISRGDWLICDADMDLIFNLPYDERWDAAYKKLGVDRIWLSSEIGHALEHHHHHH | soluble |
| MTKTAFLFAGQGAQYLGMGRDFYDQYPIVKETIDRASQVLGYDLRYLIDTEEDKLNQTRYTQPAILATSVAIYRLLQEKGYQPDMVAGLSLGEYSALVASGALDFEDAVALVAKRGAYMEEAAPADSGKMVAVLNTPVEVIEEACQKASELGVVTPANYNTPAQIVIAGEVVAVDRAVELLQEAGAKRLIPLKVSGPFHTSLLEPASQKLAETLAQVSFSDFTCPLVGNTEAAVMQKEDIAQLLTRQVKEPVRFYESIGVMQEAGISNFIEIGPGKVLSGFVKKIDQTAHLAHVEDQASLVALLEKL | soluble |
| MTLLSPGIELKETTVQSTVVNNSTGTAALAGKFQWGPAFQIKQVTNEVDLVNTFGQPTAETADYFMSAMNFLQYGNDLRVVRAVDRDTAKNSSPIAGNIEYTISTPGSNYAVGDKITVKYVSDDIETEGKITEVDADGKIKKINIPTAKIIAKAKEVGEYPTLGSNWTAEISSSSSGLAAVITLGKIITDSGILLAEIENAEAAMTAVDFQANLKKYGIPGVVALYPGELGDKIEIEIVSKADYAKGASALLPIYPGGGTRASTAKAVFGYGPQTDSQYAIIVRRNDAIVQSVVLSTKRGGKDIYDSNIYIDDFFAKGGSEYIFATAQNWPEGFSGILTLSGGLSSNAEVTAGDLMEAWDFFADRESVDVQLFIAGSCAGESLETASTVQKHVVSIGDVRQDCLVLCSPPRETVVGIPVTRAVDNLVNWRTAAGSYTDNNFNISSTYAAIDGNYKYQYDKYNDVNRWVPLAADIAGLCARTDNVSQTWMSPAGYNRGQILNVIKLAIETP | soluble |
| MTLMNTENEPTGMLTIRVSAMPKDANSAYDIFGGWVMAQMDMAAGIRSAERARGRTVTAAVREMAFARPVKIGDTLCVYTDITRVGRTSITLRVEAWAKRYLSDKRDLVTHAEFIMVALDADGKPTPAPQEDLEHHHHHH | not soluble |
| MTLNIYTEEWAPISFSVDGKPDGLAVQVVQEIQKRIDNQDPIKVVPWARGWKIITEQPNTVLFTMTRTAERERMFSLIGPVAVGTTNFYALKNSNLKINLEHHHHHH | not soluble |
| MTLQEQIMKALHVQPVIDPKAEIRKRVDFLKDYVKKTGAKGFVLGISGGQDSTLAGRLAQLAVEEIRNEGGNATFIAVRLPYKVQKDEDDAQLALQFIQADQSVAFDIASTVDAFSNQYENLLDESLTDFNKGNVKARIRMVTQYAIGGQKGLLVIGTDHAAEAVTGFFTKFGDGGADLLPLTGLTKRQGRALLQELGADERLYLKMPTADLLDEKPGQADETELGITYDQLDDYLEGKTVPADVAEKIEKRYTVSEHKRQVPASMFDDWWKLAAALEHHHHHH | soluble |
| MTLVASSENTGLCPMTFDDSSGQTSHMLFQRLQYQRKTGRFCDVEIVVQNKSFAAHRNILAAHSPYFDAIFKYCKITKEQLTINSKSPQVFELFLNYMYSGTVIIDRSSVSELLRFANNFLIVKLKVYCAAYLDRYLDAANCLSIRTLAQRYNLPGLVKSATDYFDSNLNRCLLESRDIIGYTYTQLTRLIGDPKYVDCITSDTYLKLIVRWVGEEVSKREEIFRLLLESCEFREVSADTLEFLLDYSPLLSKSQKSRFLLLHVMETNNMLMEKYSTQLSSLRQKIVDLPILHDPSQFEDDIYDSSDSEEDPDDYIADGHPTSAQVVEYGNDVNNRLKMKIAFQPGNEKKRLKRPKGMKKHHLHPIPPINATENESIPWIDEDEIDGVYATCSLEGCHTYGPVDNLDPDDCEDEEDQPDENGPSTCIFCGLRTANEELLEKHKARHHNRNTYYMCHLCEFETNWSKQFYLHCAEHWTEIPYRCETCPFTSNEIQEFLTHRLQHTDERFFKCGECAWKGRTRSQLFAHERMHSVLDDRSLHCEECGRGFQQHSTLDHHVASHNDPRPYICEDCGFATKTADHLSLHRRQHTGDNFSCHIAGCDYSSTKKSQLAAHLRTHMAVRAHLCKICGRGFIEKSHLVRHERIHLEEKPFKCDQCEYASSRRDKLKEHIIKHHNSEVLTFQKTQRRKYKRQRMLAAASNIVNNPDALFRPITSDDAVSNWQATNDFSTYSPNPNDYGGPSTYGNPSSPQRAFSVVHPSQHQHHAQSPGCMSMMNVPLRDNHHQMQRQDSPGDSVGGGQGGGGGGGPEGSDNTHGVLMTPNLVMRSPHNRSAVQPQFNNLSTNSDPQQQQQQQQLRPFSLPTYGQMDLAQAAQLQQLQQQLQAAGLPPTGTPNNQDNSNNAWNPWNVQ | not soluble |
| MTMTETMNVDLLLEMESVHVKPFTEHDKVILRSYEAVVDGIASLIGPFCEIVLHSLEDLNTSAIKIANGENTGRQVGSPITDMALKMLRDIEGSERNFSRSYFTRAKGGVLMKSITVAIRNGENRVIGLLCINVNLDAPFSQVLKSFMPTQEAQEAASSVNFASDVEELVDQTVERTIEEINGDKSVSNNTKNRQIVMALFDKGIFDIKDAINRVADRLNISKHTVYLYIRQRKTEDDEK | not soluble |
